According to patent US20230212587A1, “Mutant Hydroxyphenylpyruvate Dioxygenase Polypeptide, Encoding Gene Thereof and Use Therefor” (Beijing Dabeinong Biotechnology Co., Ltd., priority 2019, published 2023):
Positions count from the first letter of the chain named. In names and notes the source's numbering stands.

B1: NtHPPD-02: native Nicotiana tabacum HPPD, SEQ ID NO: 111 (protein, listed as Nicotiana tabacum)
chain: MGKLETVTTTSAAAADDSSELTTNFKLVGFKNFIRTNPRSDFFSVKSFHHIEFWCGDATNTARRFSWSLGMPIAAKSDLSTGNSVHASYLLRPVSGSLQFLFTAPYSPSISTPSSAAIPSFSTSTHRSFTTTHGLGVRAVALEVENAYTAFSASVSRGAKPMFEPVTIDEQVAMAEVHLYGDVVLRFVSYLKDADNLVFLPGFEAMDETASYKELDYGIRRLDHAVGNVPELGPVVDYIKRFTGFHEFAEFTAEDVGTAESGLNSMVLANNDETVLLPLNEPVYGTKRKSQIQTYLEHNEGAGVQHLALVTEDIFKTLTEMRKRSGVGGFEFMPSPPPTYYKNLKNRAGDVLSDEQILACEELGILVDRDDQGTLLQIFTKPVGDRPTIFIEIIQRIGCMLKDGKGQVYQKGGCGGFGKGNFSELFRSIEEYEKTLEAKQANQVAAA
modifications: NtHPPD Amino Acid Sequence
B2: BvHPPD-02: native Beta vulgaris HPPD, SEQ ID NO: 105 (protein, listed as Beta vulgaris)
chain: MGTLSPQPQTSPSQFKLVGYSNFIRVNPLSDLFPVKRFHHVEFWCGDATNVSRRFSWGLGMPIVAKSDLSTGNSVHASYLLRSGELHFLFTSPYSPSLSSPSSATIPTFSFSLFTSFLTSHGLAVRAVAVEVQDAEAAFHISVSNGASPVSPPIRLHDGVVLSEVHLYGDVVLRYVSTSSVVDGIFLPGFEEMLGESSFQELDFGLRRLDHAVGNVPELAPAIEYVKKFTGFHEFAEFTTEDVGTSESGLNSAVVANNDETVLFPMNEPVYGTKRKSQIQTYLEHNEGAGVQHLALMSEDIFWTLREMRKRSGLGGFEFMPSPPPTYYRNLRNRAADVLSEEQMKECEELGILVDKDDQGTLLQIFTKPIGDRPTMFIEIIQRIGCMMKDEEGKVYQKGGCGGFGKGNFSELFKSIEEYEKTLERKPIADTNAT
modifications: BvHPPD Amino Acid Sequence
B3: BvHPPDm-F372A-02: Beta vulgaris HPPD mutant F372A, SEQ ID NO: 108 (protein)
chain: B2 chain with F366A
modifications: BvHPPDm-F372A Amino Acid Sequence
B4: TaHPPD1m-F372A-02: Triticum aestivum ecotype 1 HPPD mutant F372A, SEQ ID NO: 180 (protein)
chain: MMNAHANLALAALAFPAHMPNSKSSHIRSRRTRRPLLPLTMAAHPPIRTNIGMSTHGSASGGGEQAGISSTDRFRMIDFHHVEFWCADAASAAARFSFGLGVPLAAESGLSTGNTAHASHLLHSRSGSLALLFSAPYAQGDAVTASVPSFDADAARRFTADHGLAVRAMAVRVPDAGEAFRTSVDAGARPSFAPAELGHGFELAEVQLYGDVVLRFVSHPDDTAIPFLPGFGSVPSSGATPDYGLTRFDHIVGDVPHLAPVAAYIAGFTGFHEFSRFTADQVGTAESSLNVVVLANNSENVLLTVVEPVHGTKRRSQVQTYLDHHGGPGVQHLAMASNDVLGTLRKIRGRSTMGGFELLPPPPASYYDDVRRRAGDVLSEAQIKGCQELGVRVDKDDHGGVVLQIATKAAGDRPTLLLEFIQRIGCMDKDENGQEYQRGGCGGFGQGNVTELFKSIEDYEKSLDASARLAA
modifications: TaHPPD1m-F372A Amino Acid Sequence
B5: TaHPPD2-02: native HPPD of Triticum aestivum ecotype 2, UniProt Q45FE8, SEQ ID NO: 183 (protein, listed as Triticum aestivum)
chain: MPPTPTTPAATGAGAAAAVTPEHARPRRMVRFNPRSDRFHTLSFHHVEFWCADAASAAGRFAFALGAPLAARSDLSTGNSVHASQLLRSGNLAFLFTAPYANGCDAATASLPSFSADAARRFSADHGLAVRSIALRVADAAEAFRASVDGGARPAFSPVDLGRGFGFAEVELYGDVVLRFVSHPDDTDVPFLPGFEGVSNPDAVDYGLTRFDHVVGNVPELAPAAAYVAGFAGFHEFAEFTTEDVGTAESGLNSMVLANNSEGVLLPLNEPVHGTKRRSQIQTFLEHHGGSGVQHIAVASSDVLRTLREMRARSAMGGFDFLPPRCRKYYEGVRRIAGDVLSEAQIKECQELGVLVDRDDQGVLLQIFTKPVGDRPTLFLEMIQRIGCMEKDERGEEYQKGGCGGFGKGNFSELFKSIEDYEKSLEAKQSAAVQGS
modifications: TaHPPD2 Amino Acid Sequence
B6: TaHPPD2m-F372A-02: Triticum aestivum ecotype 2 HPPD mutant F372A, SEQ ID NO: 186 (protein)
chain: B5 chain with F368A
modifications: TaHPPD2m-F372A Amino Acid Sequence
B7: TaHPPD3-02: native HPPD of Triticum aestivum ecotype 3, UniProt A0A3B6PKV0, SEQ ID NO: 189 (protein, listed as Triticum aestivum)
chain: B5 chain with G14A, S43A, S291P, R325P, C326L, R327P, G435A
modifications: TaHPPD3 Amino Acid Sequence

Each molecule was assayed on Arabidopsis thaliana T1 plants (assay: Topramezone tolerance of transgenic Arabidopsis thaliana T1 plants (pesticide damage grade by bleached leaf area, score, resistance evaluation)). Conditions: HPPDs from different species; number of plants (of 16) in this grade; topramezone 25 g ai/ha (1x), 7 DAT.
Type: in vivo
Summary of the method: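 Eighteen days after sowing, wild-type and HPPD-transgenic T1 Arabidopsis receive a topramezone spray at 1×, 2× or 4× field rate (25–100 g ai/ha) or water. Seven days later each plant is graded by its proportion of bleached leaf area.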

Molecule | Classification and statistics of pesticide damage grade Grade 0 | Classification and statistics of pesticide damage grade Grade 1 | Classification and statistics of pesticide damage grade Grade 2 | Classification and statistics of pesticide damage grade Grade 3
B1 | 0 | 0 | 0 | 16
B2 | 0 | 0 | 0 | 16
B3 | 0 | 6 | 10 | 0

Same assay, conditions: HPPDs from different species; number of plants (of 16) in this grade; topramezone 100 g ai/ha (4x), 7 DAT

Molecule | Classification and statistics of pesticide damage grade Grade 0 | Classification and statistics of pesticide damage grade Grade 1 | Classification and statistics of pesticide damage grade Grade 2 | Classification and statistics of pesticide damage grade Grade 3
B1 | 0 | 0 | 0 | 16
B2 | 0 | 0 | 0 | 16
B3 | 0 | 0 | 4 | 12

Same assay, conditions: HPPDs from different species; score for pesticide damage 0-100; topramezone 25 g ai/ha (1x), 7 DAT

Molecule | Scores
B1 | 100
B2 | 100
B3 | 54

Same assay, conditions: HPPDs from different species; score for pesticide damage 0-100; topramezone 100 g ai/ha (4x), 7 DAT

Molecule | Scores
B1 | 100
B2 | 100
B3 | 92

Same assay, conditions: HPPDs from different species; topramezone 25 g ai/ha (1x), 7 DAT

Molecule | Resistance evaluation
B1 | non-resistant (non-resistant plants (scores 68-100))
B2 | non-resistant (non-resistant plants (scores 68-100))
B3 | poorly resistant (poorly resistant plants (scores 34-67))

Same assay, conditions: HPPDs from different species; topramezone 100 g ai/ha (4x), 7 DAT

Molecule | Resistance evaluation
B1 | non-resistant (non-resistant plants (scores 68-100))
B2 | non-resistant (non-resistant plants (scores 68-100))
B3 | non-resistant (non-resistant plants (scores 68-100))

Same assay, conditions: topramezone 25 g ai/ha (1x); HPPDs from ecotypes of Triticum aestivum

Molecule | Resistance evaluation | Scores
B4 | highly resistant (highly resistant plants (scores 0-15)) | 0
B5 | non-resistant (non-resistant plants (scores 68-100)) | 100
B6 | highly resistant (highly resistant plants (scores 0-15)) | 0
B7 | non-resistant (non-resistant plants (scores 68-100)) | 100

Same assay, conditions: topramezone 25 g ai/ha (1x); number of plants; HPPDs from ecotypes of Triticum aestivum

Molecule | Classification and statistics of pesticide damage grade: Grade 0 | Classification and statistics of pesticide damage grade: Grade 1 | Classification and statistics of pesticide damage grade: Grade 2 | Classification and statistics of pesticide damage grade: Grade 3
B4 | 16 | 0 | 0 | 0
B5 | 0 | 0 | 0 | 16
B6 | 16 | 0 | 0 | 0
B7 | 0 | 0 | 0 | 16

Same assay, conditions: topramezone 100 g ai/ha (4x); HPPDs from ecotypes of Triticum aestivum

Molecule | Resistance evaluation | Scores
B4 | highly resistant (highly resistant plants (scores 0-15)) | 2
B5 | non-resistant (non-resistant plants (scores 68-100)) | 100
B6 | moderately resistant (moderately resistant plants (scores 16-33)) | 17
B7 | non-resistant (non-resistant plants (scores 68-100)) | 100

Same assay, conditions: topramezone 100 g ai/ha (4x); number of plants; HPPDs from ecotypes of Triticum aestivum

Molecule | Classification and statistics of pesticide damage grade: Grade 0 | Classification and statistics of pesticide damage grade: Grade 1 | Classification and statistics of pesticide damage grade: Grade 2 | Classification and statistics of pesticide damage grade: Grade 3
B4 | 15 | 1 | 0 | 0
B5 | 0 | 0 | 0 | 16
B6 | 8 | 8 | 0 | 0
B7 | 0 | 0 | 0 | 16
